Assay results taken from the RNAGym collection of RNA variant scans (doi:10.1073/pnas.2313332121).
Variants at the floor of the assay were thinned out.

B1: TPR 5TU (parent)
chain: GGAUCUUCUCGAUCUAACAAAAAAGACAAAUCUGCCACAAAGCUUGAGAGCAUCUUCGGAUGCAGAGGCGGCAGCCUUCGGUGGCGCGAUAGCGCCAACGUUCUCAACUAUGACACGCAAAACGCGUGCUCCGUUGAAUGGAGUUUAUCAUG

Variants of: B1
Assay: polymerase ribozyme fitness, log enrichment relative to wild type (log ratio); higher = more active; in vitro selection for triplet polymerase activity
In short: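 One round of in vitro selection, in triplicate, was applied to PCR-built, transcribed mutant libraries of each subunit of a heterodimeric triplet polymerase ribozyme. The steps were annealing with a biotinylated primer, partner subunit and triplets, incubation frozen at −7 °C, gel excision of extended constructs, streptavidin-bead capture and RT-PCR. Fitness is the logarithm, base 2, of genotype enrichment over wild-type enrichment from inverse-variance-weighted replicate averages of Illumina-sequenced inputs and outputs, keeping genotypes with ≥10 input reads and ≥1 read per output.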

| Variant | polymerase ribozyme fitness (log ratio) |
| --- | --- |
| C36U C57G C69A U134C | -2.32 |
| C35U G81C C85G | -1.5 |
| A37C G62C G86A C96G C99A | ≤ -4.2 |
| C38U A60U | -1.14 |
| A37U A49C C95G A97G C108G A138G U146G U151A | ≤ -4.2 |
| C38A G58A C95G G124C C125U | -1.11 |
| C36A C116A | -3.76 |
| C38U A39C G92U | -2.59 |
| C36U G141C | -2.17 |
| A39C C63A A119C | -4.05 |
| C38U A47G C51G C93U | -3.21 |
| C36A A47U G74U G92C A115G C149G | ≤ -4.2 |
| C38A U45A C57A C87G U90G A107U | ≤ -4.2 |
| A37C A52G G84C U130A G143C | ≤ -4.2 |
| A37G C76U G80U C105U A122U | ≤ -4.2 |
| C38A C57A G83A | -0.895 |
| C36A U55A G124A G141U | ≤ -4.2 |
| C36U U55A C93U U144G | -1.07 |
| C38A C51U C95U G124C | -1.51 |
| C38U A89U C114U | -2.12 |
| C35U G83A C116A | -1.03 |
| C38U C63A C103A | -1.77 |
| A37G A40G A41G C76U C87U C93G C125G | ≤ -4.2 |
| A39C C108U | -3.8 |

| Variant | polymerase ribozyme fitness (log ratio) |
| --- | --- |
| C38U C54U G58C C85U C105G U144C | -2.92 |
| C38U G59U C79G | -3.85 |
| A37G C87U G136U | -3.7 |
| C36U G92C G100U G117A A122G | ≤ -4.2 |
| C36G C43U C85U A115C C116A | -4.15 |
| C38U G65U G71U U90C C114U U135C U146A | ≤ -4.2 |
| A37G G84U | -3.14 |
| A37U A89C U148A | ≤ -4.2 |
| A37C A41C U56A G67C C85A G126A C131A G141A | ≤ -4.2 |
| C38U G59C C95U A98U C103G U148G | ≤ -4.2 |
| C38A C75G C96G | ≤ -4.2 |
| A37G G84U U104G C118G | ≤ -4.2 |
| C38G A41U C93G A110C | ≤ -4.2 |
| C35U G81C U109G C116U | -3.18 |
| C38U C43U A73U C79A U90C U148G | ≤ -4.2 |
| C38U G58C G80A C95A C114G | -3.62 |
| A37U C57G U61A G71U A91G U139G | ≤ -4.2 |
| A37G G92U | -2.01 |
| C36A G94A A121C | -4.03 |
| A37C A73G G86A | -2.34 |
| A37U C38A G58C C85G C87G | ≤ -4.2 |
| C38U C85U C131G | -3.56 |
| C36A C57U C63A G86A A147G | ≤ -4.2 |
| C36A G74C | ≤ -4.2 |

| Variant | polymerase ribozyme fitness (log ratio) |
| --- | --- |
| C36U A97U U130C | -1.25 |
| C38U U56A A120G G126U U145C U146G | -3.34 |
| C38A A52G C63A | -1.26 |
| C36U A49U C79A A106U A147C | ≤ -4.2 |
| C38U C87U C103U | -0.308 |
| C36A A110U A122U | ≤ -4.2 |
| C38G G143C C149U | ≤ -4.2 |
| C35U G86A | -1.37 |
| C38A U61A A97G C123U | -1.68 |
| A37C G84U | -2.07 |
| C38A U55C A66G G80A U90A U127C | ≤ -4.2 |
| C38G C87U C125U G141A | -3.12 |
| C38U U56A G68A C95A | ≤ -4.2 |
| C35U U53A U135A G143C | -4.16 |
| C38U G62C | -2.41 |
| A37U A39U A49C G50C G84A A98C G143U | ≤ -4.2 |
| A37U G84A C118U A122U | -1.57 |
| C38A G59U C85U U90C | ≤ -4.2 |
| C38G G50A G58C A60G U145G | ≤ -4.2 |
| A37U A66U C76A U102A G141C | ≤ -4.2 |
| A37G U55A A73G U111G | ≤ -4.2 |
| C38U A89C C93U G124C | -2.94 |
| A37U C85G G86A G92C A115G | -3.98 |
| C38A C85U | -0.235 |

| Variant | polymerase ribozyme fitness (log ratio) |
| --- | --- |
| C36U A106G C114G | -3.87 |
| C38U A52C U55G U56A A120C A121C | -2.04 |
| A39C A66C G86U | ≤ -4.2 |
| C38U U101A C103G A121U U144G | -3.85 |
| A37G G59C A147C | -2.8 |
| C38U G80U U134G A142C G152U | -3.64 |
| C35U G58U C87U C114A A119C | -4 |
| C35U G68U U90G G117A U144G | ≤ -4.2 |
| C36U C93A A110C U139A | ≤ -4.2 |
| C38A U146G | -1.37 |
| C36A A89U C116A A120U | -4.18 |
| C36G A52C C95U U148A A150U | ≤ -4.2 |
| C38U U45G G68A G81U C87G A98G | ≤ -4.2 |
| C36U A52U U53C C79U A91U U135A | ≤ -4.2 |
| A39C G48C G59U A60U A66G G71A C96U U101G U151A | ≤ -4.2 |
| C36U A52C U55G G58C C125A C131G | ≤ -4.2 |
| C38U G50U G80C C85U | ≤ -4.2 |
| C36A U55A G92A C96G G126C U144C | ≤ -4.2 |
| A37G C57G C69A C85U A120U | -3.21 |
| C38A C95G | -1.41 |
| C38A C95U | -0.419 |
| C38A A41C U61A G94A C131A G141A U144G U151A | ≤ -4.2 |
| C35U G50A U53A U56A C85A C93A C95U | ≤ -4.2 |
| C36U G59A G94U A107C G133C G140U U144G | ≤ -4.2 |

| Variant | polymerase ribozyme fitness (log ratio) |
| --- | --- |
| C36U C96G G117U G152A | -3.09 |
| A37G C85G | -3.97 |
| C36A A60G G143A | ≤ -4.2 |
| C35U G59A | 0.0486 |
| A37U A98U | -0.971 |
| A37G A66U | ≤ -4.2 |
| A39C A49U G67A A121U | ≤ -4.2 |
| A37U G81U C85U A137C | ≤ -4.2 |
| C36G A40C G42C C54U G68A C118G C131A U135G C149A | ≤ -4.2 |
| A37C U61A | -1.77 |
| A37C A98U | 0.384 |
| C38A U82G A91G A106C A138G | ≤ -4.2 |
| C36U U144C | -1.23 |
| A39C | -1.87 |
| C35U G59A C87U U144C | -1.17 |
| C38A C131G U146C U151A | ≤ -4.2 |
| C36A C75A C79U A115U A120C C125U | ≤ -4.2 |
| A37U A64G A73G G133U | -4.19 |
| C38A C93U | -1.67 |
| C38U U61A | -0.395 |
| A37C G58A | 0.575 |
| C35U G58A A150G | -1.55 |
| A37C G84U U127G G128A U134G | ≤ -4.2 |
| C38G A47C | -0.652 |

| Variant | polymerase ribozyme fitness (log ratio) |
| --- | --- |
| C36U U61A C95U U102C | -4 |
| C38U G68C G88A A147C | ≤ -4.2 |
| A37G A47G G92C | -3.05 |
| C38A A147C | -1.26 |
| A37G G50U C72U C105G U139C | ≤ -4.2 |
| A37C C118U A121G | 0.0889 |
| A37U G65C A110U G136C | ≤ -4.2 |
| A37C U55G G81A C87A A106C A107U G143U | ≤ -4.2 |
| C36U | -0.919 |
| C36A | -2.97 |
| C36G | -3.16 |
| C36A C79U G88C A113G A150U | ≤ -4.2 |
| A37C C72U G88C A89U A138U U145G | ≤ -4.2 |
| C36U C87U C93A C95G | ≤ -4.2 |
| A37C A40G G50U G86A A97U | ≤ -4.2 |
| C38U C57U A106U U146G | -2.36 |
| A39C C96U | -2.7 |
| A37C A60U C63U G86U A98G | -3.99 |
| C36U C57A | -0.483 |
| C36G C69A U78C C85U U102C U127A | ≤ -4.2 |
| C38U A66G | ≤ -4.2 |
| A37U G48C | -2.02 |
| A39C A49U C69U C85A C105U | ≤ -4.2 |
| C36U U55A G58A A91U C93U U127A U148C | ≤ -4.2 |

| Variant | polymerase ribozyme fitness (log ratio) |
| --- | --- |
| C35U U61A | -1.27 |
| C36A G50A A64U A66C A98U U104A U109G U148G | ≤ -4.2 |
| C38G C85G | -2.66 |
| C38U A60U A89U | -0.823 |
| A37G G84U G92A U102G G117U G140A U144A | ≤ -4.2 |
| A37U A47G U53A G92C A106U A137G G141U | ≤ -4.2 |
| C38U A49G G92U C103U G124U | -1.7 |
| C38U C95A A120G G141C | -1.16 |
| C35U U55G A60C A91U A119G A121U C149G | ≤ -4.2 |
| C36U U56A C85G C105A C116A | ≤ -4.2 |
| C38U U56A A60G U78A C79G C85A A119C U135G U151A | ≤ -4.2 |
| C36U U61A C96G G133A | -3.93 |
| A37C C87U A119U G128C | -3.46 |
| C36U G48U C96G C103G A121C | -2.74 |
| A37C C87A | ≤ -4.2 |
| A37G G58U A89G | -2.84 |
| A37C C123U | 0.207 |
| C35U U77C G88A G124U | ≤ -4.2 |
| C38U C54A U82C U134G | -3.4 |
| C36U C95G | -2.94 |
| A37C G42U G58A C96A G117U U146A | ≤ -4.2 |
| A37U G58C | -0.362 |
| C35U G65A G80U C95G G141C | -3.95 |
